How the values were obtained:
Assay in all cases: cell microarray
ADGRG7 = molecular target: T1, ADGRG7 (human, UniProt Q96K78)
T1 sequence (looked up): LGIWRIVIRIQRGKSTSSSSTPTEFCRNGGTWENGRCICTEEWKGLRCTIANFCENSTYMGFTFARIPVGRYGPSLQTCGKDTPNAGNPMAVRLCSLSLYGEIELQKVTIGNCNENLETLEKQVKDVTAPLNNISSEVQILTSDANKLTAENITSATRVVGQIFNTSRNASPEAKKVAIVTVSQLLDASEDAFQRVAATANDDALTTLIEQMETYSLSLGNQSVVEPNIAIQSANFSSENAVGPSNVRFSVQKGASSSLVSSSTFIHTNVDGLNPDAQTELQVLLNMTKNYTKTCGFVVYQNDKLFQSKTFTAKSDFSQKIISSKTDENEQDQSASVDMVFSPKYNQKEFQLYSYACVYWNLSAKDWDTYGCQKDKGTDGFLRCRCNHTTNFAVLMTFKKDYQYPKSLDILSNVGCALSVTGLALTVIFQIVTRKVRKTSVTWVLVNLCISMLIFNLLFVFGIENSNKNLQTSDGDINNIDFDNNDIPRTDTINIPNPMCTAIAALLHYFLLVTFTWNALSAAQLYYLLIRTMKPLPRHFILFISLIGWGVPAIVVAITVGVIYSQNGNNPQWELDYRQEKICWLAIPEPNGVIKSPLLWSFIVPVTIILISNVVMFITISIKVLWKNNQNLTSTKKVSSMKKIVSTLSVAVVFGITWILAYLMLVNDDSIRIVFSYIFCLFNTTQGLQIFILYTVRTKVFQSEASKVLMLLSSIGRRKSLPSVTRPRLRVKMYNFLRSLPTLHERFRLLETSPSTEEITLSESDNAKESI

LGALS1 = LGALS1 (human, UniProt P09382)
Chain of LGALS1 (P09382 2-135 limits assumed): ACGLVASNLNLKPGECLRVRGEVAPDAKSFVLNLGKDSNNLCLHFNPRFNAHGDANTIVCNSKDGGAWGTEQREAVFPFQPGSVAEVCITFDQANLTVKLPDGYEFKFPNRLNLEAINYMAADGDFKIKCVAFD

SIGLEC15 = molecular target: T2, SIGLEC15 (human, UniProt Q6ZMC9)
T2 sequence (looked up): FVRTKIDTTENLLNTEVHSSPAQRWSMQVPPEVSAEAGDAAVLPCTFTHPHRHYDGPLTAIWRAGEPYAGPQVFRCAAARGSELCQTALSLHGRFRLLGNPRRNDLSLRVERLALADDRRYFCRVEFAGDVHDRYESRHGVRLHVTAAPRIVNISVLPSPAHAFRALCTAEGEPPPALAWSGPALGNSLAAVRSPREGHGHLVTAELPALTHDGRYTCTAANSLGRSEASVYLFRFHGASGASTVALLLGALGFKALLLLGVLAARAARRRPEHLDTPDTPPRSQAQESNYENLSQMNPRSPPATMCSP

CD86 (cell microarray) = molecular target: T3, CD86 (cell microarray) (human, UniProt P42081 24-329)
T3 sequence (looked up): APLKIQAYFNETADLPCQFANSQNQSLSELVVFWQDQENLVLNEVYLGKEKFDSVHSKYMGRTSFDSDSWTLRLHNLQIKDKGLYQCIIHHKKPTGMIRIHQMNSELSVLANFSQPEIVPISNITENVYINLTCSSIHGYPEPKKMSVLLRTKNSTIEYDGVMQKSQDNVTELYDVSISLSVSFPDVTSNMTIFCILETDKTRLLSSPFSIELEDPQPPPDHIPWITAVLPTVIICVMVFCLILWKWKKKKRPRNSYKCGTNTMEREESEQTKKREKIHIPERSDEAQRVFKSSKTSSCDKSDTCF

CXCL12 = CXCL12 (human, UniProt P48061)
Chain of CXCL12 (P48061 22-89 limits assumed): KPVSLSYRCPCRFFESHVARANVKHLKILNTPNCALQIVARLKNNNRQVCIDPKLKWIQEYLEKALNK

FcγRIa (cell microarray) = FcγRIa (cell microarray) (human, UniProt P12314 16-374)
Chain of FcγRIa (cell microarray) (P12314 16-374): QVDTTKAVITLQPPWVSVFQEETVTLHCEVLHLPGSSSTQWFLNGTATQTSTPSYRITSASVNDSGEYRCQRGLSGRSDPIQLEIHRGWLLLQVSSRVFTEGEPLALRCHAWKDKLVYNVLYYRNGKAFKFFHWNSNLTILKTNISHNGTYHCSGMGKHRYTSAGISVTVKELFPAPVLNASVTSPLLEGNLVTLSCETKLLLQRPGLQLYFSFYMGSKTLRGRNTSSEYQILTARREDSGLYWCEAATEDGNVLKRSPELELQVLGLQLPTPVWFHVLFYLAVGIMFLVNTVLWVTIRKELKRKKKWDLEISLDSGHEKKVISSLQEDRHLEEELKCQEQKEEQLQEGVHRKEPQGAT

TTYH2 = molecular target: T4, TTYH2 (human, UniProt Q9BSA4)
T4 sequence (looked up): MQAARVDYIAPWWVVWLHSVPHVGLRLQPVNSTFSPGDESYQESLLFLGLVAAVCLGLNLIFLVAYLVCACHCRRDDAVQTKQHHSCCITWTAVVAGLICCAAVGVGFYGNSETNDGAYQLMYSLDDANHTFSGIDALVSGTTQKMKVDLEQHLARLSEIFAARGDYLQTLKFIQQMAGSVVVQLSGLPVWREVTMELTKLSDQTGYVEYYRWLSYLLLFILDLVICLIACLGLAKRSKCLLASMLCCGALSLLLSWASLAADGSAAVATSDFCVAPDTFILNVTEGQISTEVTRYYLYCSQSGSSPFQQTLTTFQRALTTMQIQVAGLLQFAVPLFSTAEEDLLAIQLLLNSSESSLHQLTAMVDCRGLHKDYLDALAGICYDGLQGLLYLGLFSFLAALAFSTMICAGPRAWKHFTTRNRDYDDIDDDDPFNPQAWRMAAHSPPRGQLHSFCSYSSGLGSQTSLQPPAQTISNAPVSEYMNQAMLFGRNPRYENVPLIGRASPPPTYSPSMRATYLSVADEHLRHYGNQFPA

IGF1 = IGF1 (human, UniProt P05019)
SLC26A4 = molecular target: T5, SLC26A4 (human, UniProt O43511)
T5 sequence (looked up): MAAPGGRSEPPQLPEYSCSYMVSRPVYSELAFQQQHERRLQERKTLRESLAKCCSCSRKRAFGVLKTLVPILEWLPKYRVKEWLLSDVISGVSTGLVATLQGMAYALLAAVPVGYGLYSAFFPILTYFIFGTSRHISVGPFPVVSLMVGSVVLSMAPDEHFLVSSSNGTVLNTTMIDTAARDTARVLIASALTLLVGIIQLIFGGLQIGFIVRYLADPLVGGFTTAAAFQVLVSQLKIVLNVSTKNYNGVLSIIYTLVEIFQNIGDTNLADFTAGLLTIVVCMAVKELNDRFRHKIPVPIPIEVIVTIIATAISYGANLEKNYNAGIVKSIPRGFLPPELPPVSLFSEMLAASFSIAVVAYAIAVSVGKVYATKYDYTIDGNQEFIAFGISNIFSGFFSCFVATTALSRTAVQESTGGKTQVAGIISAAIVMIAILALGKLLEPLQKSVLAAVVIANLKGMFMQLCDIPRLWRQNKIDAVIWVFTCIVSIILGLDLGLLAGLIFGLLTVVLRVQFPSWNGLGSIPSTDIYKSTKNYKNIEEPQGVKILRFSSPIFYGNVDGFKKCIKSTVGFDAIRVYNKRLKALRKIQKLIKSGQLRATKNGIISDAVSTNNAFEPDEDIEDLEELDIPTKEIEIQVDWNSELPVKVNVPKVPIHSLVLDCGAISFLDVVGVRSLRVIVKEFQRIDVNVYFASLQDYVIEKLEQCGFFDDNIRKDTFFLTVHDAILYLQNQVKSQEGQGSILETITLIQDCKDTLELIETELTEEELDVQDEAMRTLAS

Measured: binding result

B1: Fc LALA-PG only construct with the ACE2 domain omitted (other)
chain: EPKSCDKTHTCPPCPAPEAAGGPSVFLFPPKPKDTLMISRTPEVTCVVVDVSHEDPEVKFNWYVDGVEVHNAKTKPREEQYNSTYRVVSVLTVLHQDWLNGKEYKCKVSNKALGAPIEKTISKAKGQPREPQVYTLPPSREEMTKNQVSLTCLVKGFYPSDIAVEWESNGQPENNYKTTPPVLDSDGSFFLYSKLTVDKSRWQQGNVFSCSVMHEALHNHYTQKSLSLSPGK
notes: also called control Fc (LALA-PG)
no binding: ADGRG7 | LGALS1 | SIGLEC15 | CD86 (cell microarray) | CXCL12 | FcγRIa (cell microarray) | TTYH2 | IGF1 | SLC26A4
